Test results published in the supplement of paper PMC5998384.

Key:
HeLa Kyoto [1] = experiment: solubility in G1/S (NP-40 vs SDS abundance) (log2 ratio); higher = more soluble; settings: cell cycle stage: G1/S
HeLa Kyoto [2] = experiment: melting temperature (median over replicates), in situ; higher = more thermally stable
HeLa Kyoto [3] = experiment: solubility change mitosis vs G1/S (difference of NP-40 vs SDS log2 ratios) (log2 ratio difference); higher = more soluble in mitosis
HeLa Kyoto [4] = experiment: thermal stability score vs G1/S (z-score of summed log2 fold changes over temperatures); higher = more thermally stable than in G1/S
[5] = cell cycle stage: early G1 (4.5 h after nocodazole release)
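For melting temperature (median over replicates), in situ in this document: HeLa Kyoto cells synchronized by double thymidine or nocodazole block, proteins quantified by TMT10plex mass spectrometry, three independent biological replicates.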
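For solubility change mitosis vs G1/S (difference of NP-40 vs SDS log2 ratios) in this document: synchronized HeLa Kyoto cells (double thymidine block for G1/S, nocodazole release for mitosis), protein amounts in NP-40 versus SDS lysates quantified by mass spectrometry, three biological replicates.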
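For solubility in G1/S (NP-40 vs SDS abundance) in this document: HeLa Kyoto cells arrested at G1/S by double thymidine block, proteins quantified by TMT10plex mass spectrometry in mild NP-40 versus SDS extracts, three biological replicates.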
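For thermal stability score vs G1/S (z-score of summed log2 fold changes over temperatures) in this document: synchronized HeLa Kyoto cells, proteins quantified by TMT10plex mass spectrometry, three biological replicates, mitosis taken 0.5 h after nocodazole release, G1/S directly after double thymidine block.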

Sequence	solubility in G1/S (log2) (HeLa Kyoto [1])	melting temperature (HeLa Kyoto [2]; cell cycle stage: G1/S) [°C]	melting temperature (HeLa Kyoto [2]; cell cycle stage: mitosis) [°C]	solubility change mitosis (log2) (HeLa Kyoto [3])	thermal stability score (HeLa Kyoto [4]; [5])	thermal stability score (HeLa Kyoto [4]; cell cycle stage: mitosis)
MSYTPGVGGDPAQLAQRISSNIQKITQCSVEIQRTLNQLGTPQDSPELRQQLQQKQQYTNQLAKETDKYIKEFGSLPTTPSEQRQRKIQKDRLVAEFTTSLTNFQKVQRQAAEREKEFVARVRASSRVSGSFPEDSSKERNLVSWESQTQPQVQVQDEEITEDDLRLIHERESSIRQLEADIMDINEIFKDLGMMIHEQGDVIDSIEANVENAEVHVQQANQQLSRAADYQRKSRKTLCIIILILVIGVAIISLIIWGLNH [STX7]	0.637	54.1	55	0.264	-1.45	-2.01
MTANRLAESLLALSQQEELADLPKDYLLSESEDEGDNDGERKHQKLLEAISSLDGKNRRKLAERSEASLKVSEFNVSSEGSGEKLVLADLLEPVKTSSSLATVKKQLSRVKSKKTVELPLNKEEIERIHREVAFNKTAQVLSKWDPVVLKNRQAEQLVFPLEKEEPAIAPIEHVLSGWKARTPLEQEIFNLLHKNKQPVTDPLLTPVEKASLRAMSLEEAKMRRAELQRARALQSYYEAKARREKKIKSKKYHKVVKKGKAKKALKEFEQLRKVNPAAALEELEKIEKARMMERMSLKHQNSGKWAKSKAIMAKYDLEARQAMQEQLSKNKELTQKLQVASESEEEEGGTEDVEELLVPDVVNEVQMNADGPNPWMLRSCTSDTKEAATQEDPEQLPELEAHGVSESEGEERPVAEEEILLREFEERRSLRKRSELSQDAEPAGSQETKDSGSQEVLSELRVLSQKLKENHQSRKQKASSEGTIPQVQREEPAPEEEEPLLLQRPERVQTLEELEELGKEECFQNKELPRPVLEGQQSERTPNNRPDAPKEKKKKEQMIDLQNLLTTQSPSVKSLAVPTIEELEDEEERNHRQMIKEAFAGDDVIRDFLKEKREAVEASKPKDVDLTLPGWGEWGGVGLKPSAKKRRRFLIKAPEGPPRKDKNLPNVIINEKRNIHAAAHQVRVLPYPFTHHWQFERTIQTPIGSTWNTQRAFQKLTTPKVVTKPGHIINPIKAEDVGYRSSSRSDLSVIQRNPKRITTRHKKQLKKCSVD [UTP14A]	-1.64	53	52.8	0.895	-4.25	-2.2
MTAPCPPPPPDPQFVLRGTQSPVHALHFCEGAQAQGRPLLFSGSQSGLVHIWSLQTRRAVTTLDGHGGQCVTWLQTLPQGRQLLSQGRDLKLCLWDLAEGRSAVVDSVCLESVGFCRSSILAGGQPRWTLAVPGRGSDEVQILEMPSKTSVCALKPKADAKLGMPMCLRLWQADCSSRPLLLAGYEDGSVVLWDVSEQKVCSRIACHEEPVMDLDFDSQKARGISGSAGKALAVWSLDWQQALQVRGTHELTNPGIAEVTIRPDRKILATAGWDHRIRVFHWRTMQPLAVLAFHSAAVQCVAFTADGLLAAGSKDQRISLWSLYPRA [GNB1L]	0.0814	54.6	54.2	-0.205	-0.681	-0.0471
MTATVENLTFQKDTLGNAVDKNTSRLELRSYSLAGRHGSTEPLVLAWSSQFRRLTWGCALDALHRSPCVAASQHGVTHLIRSSRTPHSTRCRKEDAQPGHHGNGAASVTAQARGQRSVLQVPLPVPRSCLFSESFVVSVSSQSRFLASVPGTGVQRSTAADMAASTAAGKQRIPKVAKVKNKAPAEVQITAEQLLREAKERELELLPPPPQQKITDEEELNDYKLRKRKTFEDNIRKNRTVISNWIKYAQWEESLKEIQRARSIYERALDVDYRNITLWLKYAEMEMKNRQVNHARNIWDRAITTLPRVNQFWYKYTYMEEMLGNVAGARQVFERWMEWQPEEQAWHSYINFELRYKEVDRARTIYERFVLVHPDVKNWIKYARFEEKHAYFAHARKVYERAVEFFGDEHMDEHLYVAFAKFEENQKEFERVRVIYKYALDRISKQDAQELFKNYTIFEKKFGDRRGIEDIIVSKRRFQYEEEVKANPHNYDAWFDYLRLVESDAEAEAVREVYERAIANVPPIQEKRHWKRYIYLWINYALYEELEAKDPERTRQVYQASLELIPHKKFTFAKMWILYAQFEIRQKNLSLARRALGTSIGKCPKNKLFKVYIELELQLREFDRCRKLYEKFLEFGPENCTSWIKFAELETILGDIDRARAIYELAISQPRLDMPEVLWKSYIDFEIEQEETERTRNLYRRLLQRTQHVKVWISFAQFELSSGKEGSLTKCRQIYEEANKTMRNCEEKEERLMLLESWRSFEEEFGTASDKERVDKLMPEKVKKRRKVQTDDGSDAGWEEYFDYIFPEDAANQPNLKLLAMAKLWKKQQQEKEDAEHHPDEDVDESES [CRNKL1]	-0.64	47.4	48	0.252	1.73	2.31
